Assay results taken from patent publication US20230340151A1 (Pfizer, published 2023).

How the values were obtained:
[1] = target: T1, Human GUCY2C full length (SEQ ID NO: 224), recombinant protein (human, UniProt P25092 24-430, limits assumed); assay: SPR, IgG captured by anti-human Fc
T1 construct: also called huGUCY2C; biotinylated human GUCY2c

[2] = target: T2, Purified human GUCY2c ECD (recombinant, construct not stated) (human, UniProt P25092 24-430); assay: ELISA; column 'Direct huGUCY2C binding (nM)'
T2 construct: also called recombinant human GUCY2c; recombinant GUCY2c protein

Human CD3 epsilon-delta [3] = target: T3, Human CD3 epsilon-delta (human); assay: SPR, anti-human IgG capture, 25 C
T3 construct: Single-chain epsilon-linker-delta with His6; also called huCD3
T3 chain: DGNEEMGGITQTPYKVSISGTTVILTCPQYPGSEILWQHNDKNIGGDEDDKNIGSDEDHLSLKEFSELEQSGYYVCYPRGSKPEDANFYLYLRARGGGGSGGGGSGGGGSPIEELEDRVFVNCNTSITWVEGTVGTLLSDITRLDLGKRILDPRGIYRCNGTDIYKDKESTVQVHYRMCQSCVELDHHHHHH

[4] = target: T4, Murine GUCY2C-ECD cleaved (mouse, UniProt Q3UWA6 20-433); assay: SPR, GUCY2c directly immobilized, 25 C
T4 sequence: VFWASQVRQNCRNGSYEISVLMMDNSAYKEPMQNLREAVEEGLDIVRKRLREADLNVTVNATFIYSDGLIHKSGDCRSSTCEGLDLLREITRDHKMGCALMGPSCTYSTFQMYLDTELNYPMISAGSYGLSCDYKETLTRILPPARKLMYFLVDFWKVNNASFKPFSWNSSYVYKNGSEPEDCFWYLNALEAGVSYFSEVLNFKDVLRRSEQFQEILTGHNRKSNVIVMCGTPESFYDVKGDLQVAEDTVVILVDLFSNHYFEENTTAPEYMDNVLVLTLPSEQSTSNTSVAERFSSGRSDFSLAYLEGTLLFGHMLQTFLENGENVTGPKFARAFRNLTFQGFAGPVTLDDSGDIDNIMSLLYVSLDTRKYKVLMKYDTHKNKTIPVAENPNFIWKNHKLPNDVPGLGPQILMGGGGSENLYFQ

[5] = target: Human GUCY2c on tumor cells (T84, HT55) (human, UniProt P25092 24-1073); assay: cell-based or functional assay
[6] = target: T1, Human GUCY2C full length (SEQ ID NO: …); assay: SPR, anti-human IgG capture, 25 C
[7] = target: T5, Cynomolgus CD3 epsilon-delta (cynomolgus); assay: SPR, CD3 captured by anti-His, printed 25 C (Table 33F)
T5 chain: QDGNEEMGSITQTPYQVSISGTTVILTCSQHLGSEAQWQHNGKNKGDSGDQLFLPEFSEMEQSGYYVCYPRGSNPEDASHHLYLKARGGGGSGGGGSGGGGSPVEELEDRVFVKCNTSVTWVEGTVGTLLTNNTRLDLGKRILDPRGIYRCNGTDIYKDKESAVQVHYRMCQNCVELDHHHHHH

[8] = target: T1, Human GUCY2C full length (SEQ ID NO: …); assay: SPR, GUCY2c directly immobilized, 37 C
Human GUCY2C ECD-muIgG2a = target: T6, Human GUCY2C ECD-muIgG2a (human); assay: sandwich ELISA: CD3 epsilon-delta coated, GUCY2c ECD-mIgG2a Fc in solution
T6 construct: also called human GUCY2c ECD-mouse IgG2a Fc fusion protein; huGUCY2c-mIgG2a

[9] = target: T7, Cynomolgus GUCY2C-ECD Cleaved (cynomolgus, UniProt P25092 24-430 (human entry)); assay: SPR, GUCY2c directly immobilized, 25 C
T7 construct: also called CyGUCY2C
T7 chain: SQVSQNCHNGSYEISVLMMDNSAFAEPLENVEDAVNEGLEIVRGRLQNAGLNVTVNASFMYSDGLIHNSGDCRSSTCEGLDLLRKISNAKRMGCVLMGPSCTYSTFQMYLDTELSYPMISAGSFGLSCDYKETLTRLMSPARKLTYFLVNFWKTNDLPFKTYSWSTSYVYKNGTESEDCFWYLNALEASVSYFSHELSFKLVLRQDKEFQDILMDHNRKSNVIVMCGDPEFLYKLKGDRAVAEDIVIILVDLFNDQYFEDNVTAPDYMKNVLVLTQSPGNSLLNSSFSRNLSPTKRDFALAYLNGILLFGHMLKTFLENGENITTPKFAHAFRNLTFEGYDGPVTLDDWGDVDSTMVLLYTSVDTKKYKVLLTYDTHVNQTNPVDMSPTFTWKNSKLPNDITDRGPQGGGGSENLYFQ

Human CD3 epsilon-delta [10] = target: T3, Human CD3 epsilon-delta; assay: SPR, CD3 captured by anti-His, printed 25 C (Table 33C)
[11] = target: T4, Murine GUCY2C-ECD cleaved; assay: SPR, anti-human IgG capture, 25 C
[12] = target: T1, Human GUCY2C full length (SEQ ID NO: …); assay: SPR, GUCY2c directly immobilized, 25 C
[13] = target: T4, Murine GUCY2C-ECD cleaved; assay: SPR, GUCY2c directly immobilized, 37 C
[14] = target: T5, Cynomolgus CD3 epsilon-delta; assay: SPR, CD3 captured by anti-His, 25 C
Human CD3 epsilon-delta [15] = target: T3, Human CD3 epsilon-delta; assay: direct ELISA, coated CD3 epsilon-delta
Human CD3 epsilon-delta [16] = target: T3, Human CD3 epsilon-delta; assay: SPR, CD3 captured by anti-His, 25 C
[17] = target: T7, Cynomolgus GUCY2C-ECD Cleaved; assay: SPR, anti-human IgG capture, 25 C
[18] = target: T5, Cynomolgus CD3 epsilon-delta; assay: SPR, printed anti-His capture, 25 C (Table 33D)
[19] = target: T7, Cynomolgus GUCY2C-ECD Cleaved; assay: SPR, GUCY2c directly immobilized, 37 C
[20] = target: T2, Purified human GUCY2c ECD (recombinant, …); assay: direct ELISA, coated GUCY2c ECD

T2 sequence (P25092 24-430 limits assumed): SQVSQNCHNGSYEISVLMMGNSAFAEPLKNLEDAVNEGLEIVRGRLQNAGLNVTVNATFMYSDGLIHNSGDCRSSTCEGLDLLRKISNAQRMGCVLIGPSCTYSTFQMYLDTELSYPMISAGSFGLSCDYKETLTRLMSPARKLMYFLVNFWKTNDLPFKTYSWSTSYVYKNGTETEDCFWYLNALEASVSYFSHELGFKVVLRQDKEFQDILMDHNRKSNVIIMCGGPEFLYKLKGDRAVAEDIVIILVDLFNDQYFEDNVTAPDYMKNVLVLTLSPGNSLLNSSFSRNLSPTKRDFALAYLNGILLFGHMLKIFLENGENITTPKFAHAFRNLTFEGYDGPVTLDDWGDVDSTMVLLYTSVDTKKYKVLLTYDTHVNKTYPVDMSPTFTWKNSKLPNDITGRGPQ
T1 sequence (P25092 24-430 F281L limits assumed): as the sequence (P25092 24-430 limits assumed) above, with F258L counted along it
Sequence of Human GUCY2c on tumor cells (T84, HT55) (P25092 24-1073 limits assumed): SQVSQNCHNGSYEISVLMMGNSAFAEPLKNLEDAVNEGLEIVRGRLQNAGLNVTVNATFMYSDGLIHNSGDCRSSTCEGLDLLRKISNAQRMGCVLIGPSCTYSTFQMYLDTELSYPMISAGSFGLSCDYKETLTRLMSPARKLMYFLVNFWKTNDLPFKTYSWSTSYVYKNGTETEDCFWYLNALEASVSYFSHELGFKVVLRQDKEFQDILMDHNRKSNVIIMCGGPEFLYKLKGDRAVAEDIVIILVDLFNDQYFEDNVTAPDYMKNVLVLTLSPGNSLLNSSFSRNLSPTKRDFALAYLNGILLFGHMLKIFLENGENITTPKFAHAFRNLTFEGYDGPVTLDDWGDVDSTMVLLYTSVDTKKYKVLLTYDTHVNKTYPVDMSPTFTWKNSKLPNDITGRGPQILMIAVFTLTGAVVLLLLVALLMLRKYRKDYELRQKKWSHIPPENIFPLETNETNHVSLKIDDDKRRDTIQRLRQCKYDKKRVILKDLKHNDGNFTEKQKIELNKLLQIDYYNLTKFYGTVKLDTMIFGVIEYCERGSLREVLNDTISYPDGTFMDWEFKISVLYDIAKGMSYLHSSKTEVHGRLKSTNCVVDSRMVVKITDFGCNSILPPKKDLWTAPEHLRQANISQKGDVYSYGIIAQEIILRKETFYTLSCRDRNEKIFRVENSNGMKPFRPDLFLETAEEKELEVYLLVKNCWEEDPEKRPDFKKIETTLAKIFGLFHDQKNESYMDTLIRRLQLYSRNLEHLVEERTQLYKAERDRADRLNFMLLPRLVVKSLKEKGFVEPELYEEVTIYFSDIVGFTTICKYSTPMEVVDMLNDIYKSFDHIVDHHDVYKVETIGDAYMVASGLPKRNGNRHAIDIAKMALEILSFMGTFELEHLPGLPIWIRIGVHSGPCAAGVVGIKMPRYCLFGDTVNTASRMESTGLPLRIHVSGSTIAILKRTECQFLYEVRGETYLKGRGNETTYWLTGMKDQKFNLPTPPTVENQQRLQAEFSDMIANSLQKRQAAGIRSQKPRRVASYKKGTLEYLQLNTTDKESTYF
T6 sequence (chain, as listed by the source limits assumed): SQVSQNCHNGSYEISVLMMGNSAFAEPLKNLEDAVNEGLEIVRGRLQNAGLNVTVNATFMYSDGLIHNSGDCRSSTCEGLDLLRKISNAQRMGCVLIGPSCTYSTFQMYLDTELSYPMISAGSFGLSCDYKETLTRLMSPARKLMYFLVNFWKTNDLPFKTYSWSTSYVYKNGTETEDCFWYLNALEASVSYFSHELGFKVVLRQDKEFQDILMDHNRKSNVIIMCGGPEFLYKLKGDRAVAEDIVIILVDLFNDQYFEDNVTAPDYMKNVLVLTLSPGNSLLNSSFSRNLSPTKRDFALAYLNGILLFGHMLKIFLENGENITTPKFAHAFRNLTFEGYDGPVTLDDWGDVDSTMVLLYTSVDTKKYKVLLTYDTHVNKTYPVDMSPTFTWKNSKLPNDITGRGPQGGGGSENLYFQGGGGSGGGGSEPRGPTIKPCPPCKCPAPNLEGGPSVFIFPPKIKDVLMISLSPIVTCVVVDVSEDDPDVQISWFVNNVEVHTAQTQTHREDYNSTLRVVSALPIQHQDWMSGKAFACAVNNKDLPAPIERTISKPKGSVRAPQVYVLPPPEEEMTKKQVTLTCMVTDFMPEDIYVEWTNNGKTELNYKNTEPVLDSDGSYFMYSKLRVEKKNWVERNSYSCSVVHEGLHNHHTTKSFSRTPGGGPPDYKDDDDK

B1: GUCY2C-0212 (antibody, human IgG1, V domains shown)
VH: EVQLVESGGGLVQPGGSLRLSCAASGYTFTSYWMHWVRQAPGKGLEWIGEIKPSNGLTNYIEKFKNRFTISRDNAKNSLYLQMNSLRAEDTAVYYCARTITTTEGYWFFDVWGQGTLVTVSS
VL: DIQLTQSPSSLSASVGDRVTITCRASESVDYYGTSLMQWYQQKPGKAPKLLIYAASNVESGVPSRFSGSGSGTDFTLTISSLQPEDFATYYCQQTRKVYTFGQGTKLEIK
Kd [1]: 26 nM
EC50 [2]: 0.769 nM

B2: GUCY2C-0486 (antibody, human IgG1, kappa, V domains shown)
VH: EVQLVESGGGLVQPGGSLRLSCAASGYTFTSYWMHWVRQAPGKGLEWIGEIKPSNGLTNVHEKFKNRFTISVDKAKNSAYLQMNSLRAEDTAVYYCTRTITTTEGYWFFDVWGQGTLVTVSS
VL: DIQLTQSPSSLSASVGDRVTITCRASESVDYYGSSLLQWYQQKPGKAPKLLIYAASKLASGVPSRFSGSGSGTDFTLTISSLQPEDFATYYCQQTRKAYTFGQGTKLEIKR
Kd [1]: 5.47 nM

B3: GUCY2C-0210 (antibody, human IgG1, V domains shown)
VH: EVQLVESGGGLVQPGGSLRLSCAASGYTFTSYWMHWVRQAPGKGLEWIAEIKPSNGLTNYIEKFKNRFTISRDNAKNSLYLQMNSLRAEDTAVYYCARTITTTEGYWFFDVWGQGTLVTVSS
VL: DIQLTQSPSSLSASVGDRVTITCRASESVDYYGTSLMQWYQQKPGKAPKLLIYAASNVESGVPSRFSGSGSGTDFTLTISSLQPEDFATYYCQQTRKVYTFGQGTKLEIK
Kd [1]: 85.7 nM
EC50 [2]: 8.96 nM

B4: GUCY2C-0241 (antibody, human IgG1, kappa, V domains shown)
VH: EVQLVESGGGLVQPGGSLRLSCAASGYTFTSYWMHWVRQAPGKGLEWIGEIKPSNGLTNYIEKFKNRFTISVDKAKNSAYLQMNSLRAEDTAVYYCTRTITTTEGYWFFDVWGQGTLVTVSS
VL: DIQLTQSPSSLSASVGDRVTITCRASESVDYYGTSLMQWYQQKPGKAPKLLIYAASNVESGVPSRFSGSGSGTDFTLTISSLQPEDFATYYCQQTRKVYTFGQGTKLEIKR
notes: humanized IgG1; used as scFv on phage in the binary substitution library
Kd [1]: 9.81 nM
EC50 [2]: 0.161 nM

B5: GUCY2C-0098 (bispecific antibody)
chain 1: DIVLTQSPASLAVSLGQRATISCRASESVDYYGTSLMQWYQQKPGQPPKLLIYAASNVESGVPARFSGSGSGTDFSLNIHPVEEDDIAMYFCQQTRKVYTFGGGTKLEIKGGGSGGGGEVQLVESGGGLVQPGGSLRLSCAASGFTFSDYYMTWVRQAPGKGLEWVAFIRNRARGYTSDHNPSVKGRFTISRDNAKNSLYLQMNSLRAEDTAVYYCARDRPSYYVLDYWGQGTTVTVSSGCPPCPAPEAAGAPSVFLFPPKPKDTLMISRTPEVTCVVVDVSHEDPEVKFNWYVDGVEVHNAKTKPREEQYNSTYRVVSVLTVLHQDWLNGKEYKCKVSNKALPAPIEKTISKAKGQPREPQVCTLPPSREEMTKNQVSLWCLVKGFYPSDIAVEWESNGQPENNYKTTPPVLDSDGSFFLYSKLTVDKSRWQQGNVFSCSVMHEALHNHYTQKSLSLSPG
chain 2: DIVMTQSPDSLAVSLGERATINCKSSQSLFNVRSRKNYLAWYQQKPGQPPKLLISWASTRESGVPDRFSGSGSGTDFTLTISSLQAEDVAVYYCKQSYDLFTFGSGTKLEIKGGGSGGGGQVQLQQPGAELVKPGASVKLSCKASGYTFTSYWMHWVKQRPGQGLEWIGEIKPSNGLTNYIEKFKNKATLTVDKSATTAYMQLSSLTAEDSAVYYCTRTITTTEGYWFFDVWGAGTTVTVSSGCPPCPAPEAAGAPSVFLFPPKPKDTLMISRTPEVTCVVVDVSHEDPEVKFNWYVDGVEVHNAKTKPREEQYNSTYRVVSVLTVLHQDWLNGKEYKCKVSNKALPAPIEKTISKAKGQPREPQVYTLPPCREEMTKNQVSLSCAVKGFYPSDIAVEWESNGQPENNYKTTPPVLDSDGSFFLVSKLTVDKSRWQQGNVFSCSVMHEALHNHYTQKSLSLSPG
notes: chimeric CD3-GUCY2c diabody-Fc, CD3-0004
Kd (Human CD3 epsilon-delta [3]): 3.26 nM
koff (Human CD3 epsilon-delta [3]): 0.000967 s⁻¹
kon (Human CD3 epsilon-delta [3]): 297000 M⁻¹ s⁻¹
Kd [4]: 20 nM
koff [4]: 0.00268 s⁻¹
kon [4]: 134000 M⁻¹ s⁻¹
T84 tumor cell EC50 (T cell cytotoxicity, E:T 10:1) [5]: 0.41 nM
Kd [6]: 4.96 nM
koff [6]: 0.000675 s⁻¹
kon [6]: 136000 M⁻¹ s⁻¹
Kd [7]: 19.3 nM
koff [7]: 0.0442 s⁻¹
kon [7]: 2.28e+06 M⁻¹ s⁻¹
Kd [8]: 15 nM
koff [8]: 0.00377 s⁻¹
kon [8]: 251000 M⁻¹ s⁻¹
EC50 (Human GUCY2C ECD-muIgG2a): 186 nM
Kd [9]: 2.8 nM
koff [9]: 0.000577 s⁻¹
kon [9]: 206000 M⁻¹ s⁻¹
Kd (Human CD3 epsilon-delta [10]): 19.9 nM
koff (Human CD3 epsilon-delta [10]): 0.0505 s⁻¹
kon (Human CD3 epsilon-delta [10]): 2.51e+06 M⁻¹ s⁻¹
Kd [11]: 107 nM
koff [11]: 0.00402 s⁻¹
kon [11]: 37500 M⁻¹ s⁻¹
Kd [12]: 7.19 nM
koff [12]: 0.00104 s⁻¹
kon [12]: 145000 M⁻¹ s⁻¹
Kd [13]: 103 nM
koff [13]: 0.0201 s⁻¹
kon [13]: 196000 M⁻¹ s⁻¹
Kd [14]: 4.94 nM
koff [14]: 0.00478 s⁻¹
kon [14]: 969000 M⁻¹ s⁻¹
EC50 (Human CD3 epsilon-delta [15]): 7.24 nM
Kd (Human CD3 epsilon-delta [16]): 4.75 nM
koff (Human CD3 epsilon-delta [16]): 0.00524 s⁻¹
kon (Human CD3 epsilon-delta [16]): 1.1e+06 M⁻¹ s⁻¹
Kd [17]: 3.93 nM
koff [17]: 0.000524 s⁻¹
kon [17]: 134000 M⁻¹ s⁻¹
Kd [18]: 3.56 nM
koff [18]: 0.00101 s⁻¹
kon [18]: 284000 M⁻¹ s⁻¹
Kd [19]: 8.52 nM
koff [19]: 0.00264 s⁻¹
kon [19]: 310000 M⁻¹ s⁻¹
EC50 [20]: 60.2 nM
